# Experimental data: US20140341881A1
# T1: human kallikrein 14 (hK14) (human) (UniProt Q9P0G3)
# T1 sequence (looked up): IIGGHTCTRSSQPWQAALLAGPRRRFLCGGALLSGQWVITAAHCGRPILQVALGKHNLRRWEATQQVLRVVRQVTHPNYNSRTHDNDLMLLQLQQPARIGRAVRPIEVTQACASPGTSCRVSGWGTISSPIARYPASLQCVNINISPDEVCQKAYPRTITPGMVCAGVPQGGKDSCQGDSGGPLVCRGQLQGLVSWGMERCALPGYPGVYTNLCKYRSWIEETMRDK
# Target: trypsin (human), P07477
# Assay: cell-based or functional assay
# Note: test concentration or dose not given here.
Binder,% Inhibition [%],Percentage inhibition [%]
"AATE8, P01009 25-418 (protein, human) HHHHHHEDPQGDAAQKTDTSHHDQDHPTFNKITPNLAEFAFSLYRQLAHQSNSTNIFFSPVSIATAFAMLSLGTKADTHDEILEGLNFNLTEIPEAQIHEGFQELLRTLNQPDSQLQLTTGNGLFLSEGLKLVDKFLEDVKKLYHSEAFTVNFGDTEEAKKQINDYVEKGTQGKIVDLVKELDRDTVFALVNYIFFKGKWERPFEVKDTEEEDFHVDQVTTVKVPMMKRLGMFNIQHCKKLSSWVLLMKYLGNATAIFFLPDEGKLQHLENELTHDIITKFLENEDRRSASLHLPKLSITGTYDLKSVLGQLGITKVFSNGADLSGVTEEAPLKLSKAVHKAVLTIDEKGTEAAGAMFLEALQRAIPPEVKFNKPFVFLMIEQNTKSPLFMGKVVNPTQK",100,100
"AATC11, P01009 25-418 (protein, human) HHHHHHEDPQGDAAQKTDTSHHDQDHPTFNKITPNLAEFAFSLYRQLAHQSNSTNIFFSPVSIATAFAMLSLGTKADTHDEILEGLNFNLTEIPEAQIHEGFQELLRTLNQPDSQLQLTTGNGLFLSEGLKLVDKFLEDVKKLYHSEAFTVNFGDTEEAKKQINDYVEKGTQGKIVDLVKELDRDTVFALVNYIFFKGKWERPFEVKDTEEEDFHVDQVTTVKVPMMKRLGMFNIQHCKKLSSWVLLMKYLGNATAIFFLPDEGKLQHLENELTHDIITKFLENEDRRSASLHLPKLSITGTYDLKSVLGQLGITKVFSNGADLSGVTEEAPLKLSKAVHKAVLTIDEKGTEAAGAMFLEAIPRQTNPEVKFNKPFVFLMIEQNTKSPLFMGKVVNPTQK",100,
"AATG1, P01009 25-418 (protein, human) HHHHHHEDPQGDAAQKTDTSHHDQDHPTFNKITPNLAEFAFSLYRQLAHQSNSTNIFFSPVSIATAFAMLSLGTKADTHDEILEGLNFNLTEIPEAQIHEGFQELLRTLNQPDSQLQLTTGNGLFLSEGLKLVDKFLEDVKKLYHSEAFTVNFGDTEEAKKQINDYVEKGTQGKIVDLVKELDRDTVFALVNYIFFKGKWERPFEVKDTEEEDFHVDQVTTVKVPMMKRLGMFNIQHCKKLSSWVLLMKYLGNATAIFFLPDEGKLQHLENELTHDIITKFLENEDRRSASLHLPKLSITGTYDLKSVLGQLGITKVFSNGADLSGVTEEAPLKLSKAVHKAVLTIDEKGTEAAGAMFLEGSLRSIPPEVKFNKPFVFLMIEQNTKSPLFMGKVVNPTQK",100,
"AATG9, P01009 25-418 (protein, human) HHHHHHEDPQGDAAQKTDTSHHDQDHPTFNKITPNLAEFAFSLYRQLAHQSNSTNIFFSPVSIATAFAMLSLGTKADTHDEILEGLNFNLTEIPEAQIHEGFQELLRTLNQPDSQLQLTTGNGLFLSEGLKLVDKFLEDVKKLYHSEAFTVNFGDTEEAKKQINDYVEKGTQGKIVDLVKELDRDTVFALVNYIFFKGKWERPFEVKDTEEEDFHVDQVTTVKVPMMKRLGMFNIQHCKKLSSWVLLMKYLGNATAIFFLPDEGKLQHLENELTHDIITKFLENEDRRSASLHLPKLSITGTYDLKSVLGQLGITKVFSNGADLSGVTEEAPLKLSKAVHKAVLTIDEKGTEAAGAMFLETVDYAIPPEVKFNKPFVFLMIEQNTKSPLFMGKVVNPTQK",0,0
"AATG1g, P01009 25-418 (protein, human) HHHHHHEDPQGDAAQKTDTSHHDQDHPTFNKITPNLAEFAFSLYRQLAHQSNSTNIFFSPVSIATAFAMLSLGTKADTHDEILEGLNFNLTEIPEAQIHEGFQELLRTLNQPDSQLQLTTGNGLFLSEGLKLVDKFLEDVKKLYHSEAFTVNFGDTEEAKKQINDYVEKGTQGKIVDLVKELDRDTVFALVNYIFFKGKWERPFEVKDTEEEDFHVDQVTTVKVPMMKRLGMFNIQHCKKLSSWVLLMKYLGNATAIFFLPDEGKLQHLENELTHDIITKFLENEDRRSASLHLPKLSITGTYDLKSVLGQLGITKVFSNGADLSGVTEEAPLKLSKAVHKAVLTIDEKGTEAAGAMFLEGSLRGIPPEVKFNKPFVFLMIEQNTKSPLFMGKVVNPTQK",100,
"ACTC11, P01011 24-423 (protein) MRGSHHHHHHSRHPNSPLDEENLTQENQDRGTHVDLGLASANVDFAFSLYKQLVLKAPDKNVIFSPLSISTALAFLSLGAHNTTLTEILKGLKFNLTETSEAEIHQSFQHLLRTLNQSSDELQLSMGNAMFVKEQLSLLDRFTEDAKRLYGSEAFATDFQDSAAAKKLINDYVKNGTRGKITDLIKDLDSQTMMVLVNYIFFKAKWEMPFDPQDTHQSRFYLSKKKWVMVPMMSLHHLTIPYFRDEELSCTVVELKYTGNASALFILPDQDKMEEVEAMLLPETLKRWRDSLEFREIGELYLPKFSISRDYNLNDILLQLGIEEAFTSKADLSGITGARNLAVSQVVHKAVLDVFEEGTEASAATAVKITLRQTNVETRTIVRFNRPFLMIIVPTDTQNIFFMSKVTNPKQA",100,
"ACTC11D, P01011 24-423 (protein) MRGSHHHHHHSRHPNSPLDEENLTQENQDRGTHVDLGLASANVDFAFSLYKQLVLKAPDKNVIFSPLSISTALAFLSLGAHNTTLTEILKGLKFNLTETSEAEIHQSFQHLLRTLNQSSDELQLSMGNAMFVKEQLSLLDRFTEDAKRLYGSEAFATDFQDSAAAKKLINDYVKNGTRGKITDLIKDLDSQTMMVLVNYIFFKAKWEMPFDPQDTHQSRFYLSKKKWVMVPMMSLHHLTIPYFRDEELSCTVVELKYTGNASALFILPDQDKMEEVEAMLLPETLKRWRDSLEFREIGELYLPKFSISRDYNLNDILLQLGIEEAFTSKADLSGITGARNLAVSQVVHKAVLDVFEEGTEASAATAVKITLRQTNDETRTIVRFNRPFLMIIVPTDTQNIFFMSKVTNPKQA",100,

# Second part, the binder after the results:
% Inhibition [%],Percentage inhibition [%],Binder
100,100,"ACTE8, P01011 24-423 (protein) MRGSHHHHHHSRHPNSPLDEENLTQENQDRGTHVDLGLASANVDFAFSLYKQLVLKAPDKNVIFSPLSISTALAFLSLGAHNTTLTEILKGLKFNLTETSEAEIHQSFQHLLRTLNQSSDELQLSMGNAMFVKEQLSLLDRFTEDAKRLYGSEAFATDFQDSAAAKKLINDYVKNGTRGKITDLIKDLDSQTMMVLVNYIFFKAKWEMPFDPQDTHQSRFYLSKKKWVMVPMMSLHHLTIPYFRDEELSCTVVELKYTGNASALFILPDQDKMEEVEAMLLPETLKRWRDSLEFREIGELYLPKFSISRDYNLNDILLQLGIEEAFTSKADLSGITGARNLAVSQVVHKAVLDVFEEGTEASAATAVKILQRAILVETRTIVRFNRPFLMIIVPTDTQNIFFMSKVTNPKQA"
,0,"ACTG9, P01011 24-423 (protein) MRGSHHHHHHSRHPNSPLDEENLTQENQDRGTHVDLGLASANVDFAFSLYKQLVLKAPDKNVIFSPLSISTALAFLSLGAHNTTLTEILKGLKFNLTETSEAEIHQSFQHLLRTLNQSSDELQLSMGNAMFVKEQLSLLDRFTEDAKRLYGSEAFATDFQDSAAAKKLINDYVKNGTRGKITDLIKDLDSQTMMVLVNYIFFKAKWEMPFDPQDTHQSRFYLSKKKWVMVPMMSLHHLTIPYFRDEELSCTVVELKYTGNASALFILPDQDKMEEVEAMLLPETLKRWRDSLEFREIGELYLPKFSISRDYNLNDILLQLGIEEAFTSKADLSGITGARNLAVSQVVHKAVLDVFEEGTEASAATAVKTVDYAALVETRTIVRFNRPFLMIIVPTDTQNIFFMSKVTNPKQA"
0,0,"rACTWT (recombinant wild type alpha-1-antichymotrypsin), P01011 24-423 (protein, human) HHHHHHHPNSPLDEENLTQENQDRGTHVDLGLASANVDFAFSLYKQLVLKAPDKNVIFSPLSISTALAFLSLGAHNTTLTEILKGLKFNLTETSEAEIHQSFQHLLRTLNQSSDELQLSMGNAMFVKEQLSLLDRFTEDAKRLYGSEAFATDFQDSAAAKKLINDYVKNGTRGKITDLIKDLDSQTMMVLVNYIFFKAKWEMPFDPQDTHQSRFYLSKKKWVMVPMMSLHHLTIPYFRDEELSCTVVELKYTGNASALFILPDQDKMEEVEAMLLPETLKRWRDSLEFREIGELYLPKFSISRDYNLNDILLQLGIEEAFTSKADLSGITGARNLAVSQVVHKAVLDVFEEGTEASAATAVKITLLSALVETRTIVRFNRPFLMIIVPTDTQNIFFMSKVTNPKQA"

# Target: T1, human kallikrein 14 (hK14) (human)
# Assay: cell-based or functional assay
% Inhibition [%],Percentage inhibition [%],Binder
17,17,"rACTWT (recombinant wild type alpha-1-antichymotrypsin) (protein, human) HHHHHHHPNSPLDEENLTQENQDRGTHVDLGLASANVDFAFSLYKQLVLKAPDKNVIFSPLSISTALAFLSLGAHNTTLTEILKGLKFNLTETSEAEIHQSFQHLLRTLNQSSDELQLSMGNAMFVKEQLSLLDRFTEDAKRLYGSEAFATDFQDSAAAKKLINDYVKNGTRGKITDLIKDLDSQTMMVLVNYIFFKAKWEMPFDPQDTHQSRFYLSKKKWVMVPMMSLHHLTIPYFRDEELSCTVVELKYTGNASALFILPDQDKMEEVEAMLLPETLKRWRDSLEFREIGELYLPKFSISRDYNLNDILLQLGIEEAFTSKADLSGITGARNLAVSQVVHKAVLDVFEEGTEASAATAVKITLLSALVETRTIVRFNRPFLMIIVPTDTQNIFFMSKVTNPKQA"
